How the values were obtained:
Assay in all cases: ELISA; Fab fragments (IGH526, HCV1) coated ~2 μg per well; purified E1E2-DHD15 or E1E2-Fc serially diluted in 25 mM Tris, 150 mM NaCl, pH 7.4, 0.05% Tween-20, 1% BSA; detection by anti-FLAG M2 and/or HRP anti-mouse IgG
Conditions in all cases: both partners purified
[1] = molecular target: T1, E1E2-Fc oligomer (oligomeric SEC fraction of Fc-tagged HCV E1E2), expressed in HEK293 cells (hepatitis C virus genotype 1b, Con1, UniProt Q9WMX2)
T1 construct: also called E1E2 oligomer; oligomeric E1E2; source: HEK293F, transient (pMlink), secreted, purified (oligomer peak of the SEC)

[2] = molecular target: T2, E1E2-Fc heterodimer (HCV E1 and E2 ectodomains, Fc-tagged), mammalian cell expressed (hepatitis C virus genotype 1b, Con1, UniProt Q9WMX2)
T2 construct: source: HEK293F, transient (pMlink), secreted, purified

[3] = molecular target: T3, E1E2-DHD15 heterodimer (HCV E1 and E2 ectodomains with the de novo designed heterodimeric tag DHD15), insect … (hepatitis C virus genotype 1b, Con1, UniProt Q9WMX2)
T3 construct: source: High-5 insect cells (baculovirus), secreted, purified (Ni-NTA, Flag M2, SEC)

[4] = molecular target: T4, E1E2-DHD15 heterodimer (HCV E1 and E2 ectodomains with the de novo designed heterodimeric tag DHD15), … (hepatitis C virus genotype 1b, Con1, UniProt Q9WMX2)
T4 construct: source: HEK293F, transient (pMlink), secreted, purified

Measured: binding result

B1: Fab fragment of neutralizing antibody HCV1 (Fab, V domains shown)
VH: EVQLLESGGGVVQPGRSLRLSCTASGFTFNNYGMHWVRQTPGKGLEWLAVIWFDENNKYYADSVRGRFTISRDNSKNTLFLQMNSLKTEDTAMYYCARDISLVRDAFIYFDFWGLGTLVTVSS
VL: ELTLTQSPATLSLSPGERATLSCRASQSVSSYLAWYQQKPGQAPRLLIYDASNRATGIPARFSGSGSGTDFTLTISSLEPEDFAVYYCQQRSNWITFGQGTRLEIK
notes: source: HEK293F, transient (pMlink), purified
binds: [1] | [2] | [3] | [4]
